B1: B11: fully human IgG1 antibody specific for ICAM-1; VH and VL sequences of FIG. 10 (SEQ ID NOs. 6 and 8) (antibody, listed as Homo sapiens, V domains shown)
VH: EVQLLESGGGLVQPGGSLRLSCAASGFTFSNAWMSWVRQAPGKGLEWVAFIWYDGSNKYYADSVKGRFTISRDNSKNTLYLQMNSLRAEDTAVYYCARYSGWYFDYWGQGTLVTVSS
VL: QSVLTQPPSASGTPGQRVTISCTGSSSNIGAGYDVHWYQQLPGTAPKLLIYDNNNRPSGVPDRFSGSKSGTSASLAISGLRSEDEADYYCQSYDSSLSAWLFGGGTKLTVLG
B2: C11: fully human IgG1 antibody specific for surface IgM; VH and VL sequences of FIG. 11 (SEQ ID NOs. 10 and 12) (antibody, listed as Homo sapiens, V domains shown)
VH: EVQLLESGGGLVQPGGSLRLSCAASGFTFGSYEMNWVRQAPGKGLEWVSVIYSGGSTYYADSVEGRFTISRDNSKNTLYLQMNSLRAEDTAVYYCARDTNPYYYYGMDVWGQGTLVTVSS
VL: QSVLTQPPSASGTPGQRVTISCSGSSSNIGNNAVNWYQQLPGTAPKLLIYRNNQRPSGVPDRFSGSKSGTSASLAISGLRSEDEADYYCQSYDSSLNGQVFGGGTKLTVLG

Key:
[1] = system: Ramos cells; assay: Flow-cytometric IgG binding, Ramos cells mixed with peripheral blood leukocytes; parameters: species or system human
From the text: (§1) Washing was repeated twice.

[2] = system: monocyte cells; assay: as above; parameters: species or system human
From the text: as §1

[3] = system: other monitored peripheral blood leukocyte subsets; assay: as above; parameters: species or system human
From the text: as §1

[4] = system: peripheral blood B lymphocytes; assay: as above; parameters: species or system human
From the text: as §1

[5] = system: PC-3 cells; assay: Apoptosis induction in carcinoma cells (cross-linked IgG, 16-24 hours, Annexin V/PI); type: cell-based, human; details: PC-3, cross-linked IgG
Description: The prostate carcinoma cell line PC-3 was grown in Complete Growth Medium (RPMI 1640, supplemented with 10% FCS, 10 mM HEPES, and 2 mM L-Glutamine) to 80% confluency in a 6 well plate. The prostate carcinoma cell line DU145 was grown in MEM with Earl's salts, supplemented with 10% FCS, 1 mM sodium pyruvate, and 1 mM non-essential amino acids and the derivate of a melanoma cell line MDA MB 435 was grown in DMEM supplemented with 10% FCS.
For apoptosis assays cells were washed in PBS and serially diluted B11 IgG1 (or B1 IgG1, Trastuzumab or negative antibody control for controls) was added to individual wells and binding was allowed during a 1-2 h incubation at 4° C. The cells were washed and Complete Growth Medium was added, containing cross-linking antibody, Fab′2 Goat anti-Human Fab′2, at 10 μg/ml. Cells were incubated in a humidified atmosphere, with 5% CO2 at 37° C., for 16-24 hours. […] The percentage apoptotic cells was determined by the formula: % apoptotic cells=100−% AF488−AV/PI−/−.
Cells were seeded in 6 well plates with Complete Growth Medium three days before the onset of the experiment. […] Cells were washed in ice-cold PBS, subjected to Annexin V/propidium iodide staining, and analysed for viability/apoptosis as described in example 5 above.

[6] = system: RPMI-8226 myeloma cells; assay: NK-cell deficient NOD/Shi-scid/IL-2Rγ−/− mouse model; type: in vivo; details: RPMI-8226 grafted to NOD/Shi-scid/IL-2Rγ−/− mice
Description: (FIG. 20G) Tumor growth in BI-505 or control antibody treated NK-cell deficient NOD/Shi-scid/IL-2Rγ^−/− mice transplanted with RPMI-8226 myeloma cells. ***p<0.001.
Six-eight weeks-old female NOD/Shi-scid IL-2Rγ^−/− mice were obtained from Taconic, Denmark. Five million (5×10^6) RPMI-8226 or U266 tumor cells in 200 μL of RPMI 1640 were intravenously injected into the caudal vein (day 0). The tumor cell injection was performed 2 hr after whole body irradiation of mice (1.5 Gy, Cesium 137, IBL 637). At day 4, mice were randomized into 6 groups and treatment was initiated according to the schedule below.

[7] = target: T1, human FcγRIIIa (Homo sapiens, UniProt P08637); assay: BiaCore analysis of BI-505 Fc-variant binding to FcγR
T1 construct: made in house; host or cells: HEK293E cells (transient)
T1 sequence (P08637 17-254): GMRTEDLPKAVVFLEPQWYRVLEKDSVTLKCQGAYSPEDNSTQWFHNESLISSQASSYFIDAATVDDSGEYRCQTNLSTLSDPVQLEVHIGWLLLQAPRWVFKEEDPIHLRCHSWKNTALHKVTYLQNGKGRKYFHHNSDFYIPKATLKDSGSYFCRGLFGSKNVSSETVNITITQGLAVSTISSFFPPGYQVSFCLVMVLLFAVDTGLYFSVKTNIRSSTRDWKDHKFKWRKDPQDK
Description: (FIG. 20C) BiaCore analysis of BI-505 Fc-variant antibodies binding to human FcγRIIIa.
His-tagged human FcγRIIIa and mouse FcγRIV were transiently expressed in HEK293E cells, purified using Ni-NTA chromatography, and characterized by SDS-PAGE and/or Biacore. Surface plasmon resonance (SPR) measurements were performed using a Biacore 3000 instrument. Goat F(ab)′2 α-human-F(ab)′2 fragments (Jackson Laboratories) were immobilized with a CM-5 chip using a standard amine coupling protocol. BI-505 (IgG1) and IgG4 or IgG1 297Q variants of BI-505 were diluted to 15 and 60 μg/mL respectively and added to the surface at 10 μL/min for 3 min. His-tagged human FcγRIIIa or mouse FcγRIV was pre-incubated with an α-HIS antibody (R&D Systems) at a 2:1 molar ratio before addition to the chip surface, 30 μL/min, for 1 min. After each cycle the surface was regenerated twice with glycine buffer pH 1.7.

[8] = system: ARH-77 tumors; assay: SCID/ARH-77 subcutaneous xenograft model
Description: For subcutaneous grafting, 1-5×10^6 tumor cells (RPMI-8226, NCI-H929, EJM, OPM-2, ARH-77, or Daudi) were subcutaneously injected at a volume of 100 μl into the left flank of anesthetized mice as described in the Supplemental Information. […] Treatment with saline, isotype control IgG, bortezomib, lenalidomide, dexamethasone, or BI-505 started on day 5 (RPMI-8226). Treatment with melphalan started on day 10. BI-505 or isotype IgG mAb was administered i.v. at 2 mg/kg/inj twice weekly for 8 weeks; bortezomib at 1 mg/kg/inj once weekly for 8 weeks; lenalidomide orally at 2 mg/kg/inj for 2 cycles consisting of 5 days of treatment and 2 days of wash out; melphalan i.v. at 3 mg/kg/inj once weekly for 8 weeks; and dexamethasone at 6 mg/kg/inj three times weekly for 2 weeks.
Mice were anaesthetized with a mixture of sevofluran and oxygen prior to myeloma cell inoculation and 1-10×10^6 myeloma cells were then subcutaneously injected in a volume of 100 μl into the left flank. Treatment with antibodies by intraperitoneal injection started either 1 day after cell inoculation (prophylactic model) or when tumors reached approximately 100 mm^3 (established model). Antibodies were administered in 200 μL of PBS. Treatment with PBS only or isotype IgG were used as controls. Macrophages or NK-cells were depleted by i.p. administration of 0.1 ml clodronate liposomes (Clophosome-A, FormuMax, Scientific Inc. Palo Alto, USA) or 20 μl anti-asialo GM1 pCI Ab (CL8955, Cedarlane Laboratories Limited, Canada) respectively, starting one day prior to antibody treatment, followed by administration twice weekly for a total of three weeks, PBS was used as control.
Tumor size was measured using a digital calliper and tumor volumes were calculated according to the formula width^2×length×0.52, as previously described (Cao et al., 1999).
Statistical analyses of tumor growth inhibition relative to control antibody treatment were carried out using Kruskal-Wallis nonparametric ANOVA with Dunn's multiple comparisons test or Mann-Whitney non-parametric analysis, as indicated in the figure legends.

[9] = system: carcinoma cell lines initially tested; assay: IgG binding to tumour cell lines, flow cytometry; parameters: species or system human; details: all carcinoma cell lines initially tested
From the text: FIG. 6—Binding of B1, B11, C11 IgG, to tumour cell lines of different origin. The antigen distribution of antigens targeted by the B1, B11, and C11 antibodies on different carcinoma cell lines was investigated by flow-cytometry.
The antigen distribution of human antibody targeted antigens, mainly for B11, on different carcinoma cell lines was investigated. Cells (MCF-7 and MDA MB 435S breast carcinoma, JAR and JEG-3 chorio-carcinoma, A549 lung carcinoma, TCC-SUP urinary bladder carcinoma, MDA MB 435 melanoma, HPAC, PANC-1 and BxPC-3 pancreatic carcinoma, PC-3 and DU145 prostate carcinoma, LS174 T, CaCo2, and Lovo colorectal carcinoma, and THP-1 monocytic leukaemia cells), were washed in PBS, and resuspended at 4×10^6 cells/ml in Complete Medium (200,000 cells/50 […] sample). […] Cells were incubated with either of the antibodies for 1 hour on ice, washed by resuspension in PBS/BSA 0.5%, centrifuged at 1200 rpm for 5 min, and complete aspiration of the supernatants was undertaken. Cells were incubated with PE-conjugated Goat F(ab′)2 anti-Human IgG (Caltag Laboratories, Cat no: H10104), diluted 1/50 in PBS/BSA 0.5%, for 30 min, on ice. Following resuspension of in 300 μl PBS/BSA 0.5%, cells were analysed for IgG binding using a FACScan instrument.

[10] = tumors established for 12 days before start of antibody treatment

Molecule | MFI [1] | concentration at which binding peaked [1] [µg/mL] | MFI [2] | binding [3] | MFI [4] | Apoptosis Induction [5] | antitumor activity [6] | binding to human FcγR [7] | antitumor activity ([8]; dose-titration, dose of 0.2 mg/kg) | in vivo antitumor activity of Fc-variants, order ([8]; established ARH-77 tumors) | tumor macrophage infiltration ([8]; established ARH-77 tumors, F4/80+ immunohistochemistry) | tumor NK cell content ([8]; established ARH-77 tumors, immunohistochemistry) | survival ([8]; prophylactic, 0.2 mg/kg, compared to 20 mg/kg rituximab) | injected mice in which tumor growth was prevented ([8]; prophylactic, 20 mg/kg twice-weekly from 1 day after tumor cell inoculation) | animal survival [8, 10] | tumor growth [8, 10] | binding [9]
B1 | 654 | 0.1 | 176 | negative | 78 | induce apoptosis | significant antitumor activity | bound to human FcγR | near maximal | IgG1 N297Q<IgG4<IgG1 | significantly increased tumor macrophage infiltration | decreased tumor NK cell content | equally efficacious | 9 out of 10 | prolonged animal survival | significantly reduced tumor growth | –
B2 | – | – | – | – | – | – | – | – | – | – | – | – | – | – | – | – | lack of binding
